Measurements: the supplement of paper PMC12764529
± gives the half width of the 95% confidence interval.

How the values were obtained:
[1] = folding stability dG unfold from trypsin proteolysis; higher = more stable
How it was run: (§1)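 Designed mini-proteins (under 80 residues, no cysteine) in a PA-tagged cDNA display construct were digested with trypsin and chymotrypsin. Each protease was used at 11 concentrations (threefold dilutions) plus a no-protease condition, followed by sequencing. K50 was inferred by Bayesian fitting of sequencing counts, and unfolding free energy was derived against a sequence-predicted unfolded-state K50 and a shared folded-state K50, per protease or combined. Only designs with AlphaFold2 dimer inter-PAE above 15 were kept.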

[2] = folding stability dG unfold from chymotrypsin proteolysis; higher = more stable
How it was run: as §1

[3] = folding stability dG unfold (combined trypsin and chymotrypsin); higher = more stable
How it was run: as §1

| Sequence | folding stability dG unfold [1] [kcal/mol] | folding stability dG unfold [2] [kcal/mol] | folding stability dG unfold [3] [kcal/mol] |
| --- | --- | --- | --- |
| SMKPGELVLVTETETRTFTVTPEDLPPGWKVKEVKVTVTRVALFRVTPDGRVELVEEVTSVEIEVTLEPESA [r9_747_TrROS_Hall] | 4.39 ± 0.42 | 4.54 ± 0.1 | 4.52 ± 0.22 |
| SAGGSAGGSPPNKEVYIRIKIEYDGPNGQPIMEFWIPADEITPSFIEELMNRGGIKVDIELIPSAGGSAGGS [r12_398_TrROS] | 2.66 ± 0.085 | 2.99 ± 0.032 | 2.84 ± 0.1 |
| SAGGSAGGSPSEEARKKGGLTLTITLRYPDGSTVTITYPVSTPLTIPEEFAKNPPKIESIELSSAGGSAGGS [r12_161_JUSTAS] | 1.23 ± 0.019 | 1.38 ± 0.051 | 1.34 ± 0.073 |
| SAGMVEVSVTVSPRADGTITVTITLTKTFPVKDSKGNLYLETTTKTVTVPVTSLEEAPVIVKEVIDKLSAGG [r19_218_JUSTAS] | 3.82 ± 0.19 | 3.23 ± 0.14 | 3.54 ± 0.15 |
| SAGGKFKIVKIEVEEKTVKVKNKDGKIEKKKVKVIKVKIYKDGKLIKEVTFKSKEDMLNALKELLKKSAGGS [r8_21_TrROS_Hall] | 3.06 ± 0.11 | 4.53 ± 0.23 | 4.35 ± 0.3 |
| SASISVASPEEAEKIAKELKEKYGAKSVKIEPLPEPLVKVTIEFEVPLENGKTATRKIVLLFSSDGKEESAG [r14_420_TrMRF] | 1.87 ± 0.044 | 2.715 ± 0.016 | 2.44 ± 0.074 |
| SAGFKIDDVETEKDPDGEKEITFRYVDPGDGRPWMLNLRINPNGKLTEENPVPFDDFPPGSYWTIRIKSAGG [r19_393_TrROS] | 0.636 ± 0.14 | -0.0517 ± 0.41 | 0.402 ± 0.18 |
| SAGGSAGGSAGMIKIEETVVLPDGTVVRKEKEIEPPNGKTTTLKTETVPVLSPGSESLLLSAGGSAGGSAGG [r11_919_JUSTAS] | 0.429 ± 0.041 | 0.313 ± 0.074 | 0.461 ± 0.067 |
| SAGGSAGGSMTPVPGGYVITIETPAPGGVPLATLYVPSREEAEAAIAEIPAEDLTAVTVEPVLLSAGGSAGG [r6_705_JUSTAS] | 0.714 ± 0.034 | 0.566 ± 0.13 | 0.719 ± 0.081 |
| SAGGSDNKPFRIEPTGVDSVEANPDGMVEIEWRFRLPNGYVLTWRETINPKNGKPSIEPTLVPPGESAGGSA [r2_321_TrROS] | 0.816 ± 0.079 | 0.722 ± 0.18 | 0.902 ± 0.085 |
| SAGGSAGGSMETRTFDSEEELRASVSVPSSLSVTFERRPGRWEVRIEPPLSPEEIAAQRARLLSAGGSAGGS [r12_274_JUSTAS] | -0.346 ± 0.17 | -1.07 ± 0.6 | -0.553 ± 0.11 |
| SAGGKYTFTPAPPNSESEVVKKAEELKKKLAEEPGVDKKIEIEIKPSPDGSLTIKVTFSTGTYDAAASAGGS [r16_356_JUSTAS] | 0.514 ± 0.027 | 1.32 ± 0.094 | 0.942 ± 0.12 |
| SAGGSAGPEITPPVVVVTFTFKFPDGKTIEIPTTDLEEGEKEIEKIKKPLLEKKNIELVKVTTKPVSAGGSA [r15_140_JUSTAS] | -0.607 ± 0.37 | -0.389 ± 0.36 | -0.583 ± 0.36 |
| MVLDAGISRKDFINNKPIKVETALKKLAEILGGPNFKPKVKPSKKDYLVAVIELPDGRKLLLKDDKDIKISS [r1_168_TrMRF] | 0.514 ± 0.12 | -0.108 ± 0.14 | 0.377 ± 0.14 |
| SSSSEVKVERYPDSYLVTITIREGDKEVGTLSYPLNGSLTVEEVLEEVQKRYPDLPVSFSTSVPVPPPAPSA [r9_364_JUSTAS] | 3.46 ± 0.11 | 3.88 ± 0.073 | 3.8 ± 0.13 |
| SAGITLHPDARIILKNPSTGEKIELRSETIRRLIAEILGTDRPEEITAEQINAFALSLGFEEAEFEEPSAGG [r19_67_TrMRF] | 2.29 ± 0.031 | 3.312 ± 0.011 | 3.02 ± 0.045 |

| Sequence | folding stability dG unfold [1] [kcal/mol] | folding stability dG unfold [2] [kcal/mol] | folding stability dG unfold [3] [kcal/mol] |
| --- | --- | --- | --- |
| SAKFRVSISYDPPDGYLTIMFRYPNPNQPITPEEIEEIAREILEERGHKVKIDEIHHEGNYFMIKIKLPSAG [r14_556_TrROS] | 2.51 ± 0.11 | 2.54 ± 0.11 | 2.75 ± 0.2 |
| SAGGSAGGSAGGKVKIVSVSYDPETGKLTVEVEIPNPKKLLTVTTDNPNIPAEEIAKKLASAGGSAGGSAGG [r7_833_TrMRF] | 0.453 ± 0.091 | 0.058 ± 0.056 | 0.362 ± 0.15 |
| SAGGSAGGSPSVLDQVKRMIQDRIQERFGLPPGYTVQVTIDVEIDDGGIRIKKIKAEIQPPDNSAGGSAGGS [r12_481_TrROS] | 2.12 ± 0.095 | 2.42 ± 0.054 | 2.37 ± 0.17 |
| SAGGSAGGSAGKVVLAKAKVTPPDGSEYEFDLAIEVPDDVVLVVGLHFDYPDQVDFVFEGSAGGSAGGSAGG [r11_781_TrMRF] | 1.28 ± 0.03 | 1.14 ± 0.017 | 1.2 ± 0.072 |
| SAGGSMSPALNKKLDVEEITADEEEAKKIAKESKKPVIVTLPDGTVLRFNTDGSVTEYPLPPPELLSAGGSA [r2_34_JUSTAS] | 0.443 ± 0.07 | 1.12 ± 0.12 | 0.958 ± 0.12 |
| SPPGWKVIPITLKFRAPIKSVEEAKSQVREIAREIANRHGFPIQVNVTVEYDPEDGWVKVEVPISIWVPKSA [r9_741_TrROS] | 2.75 ± 0.081 | 3.234 ± 0.022 | 2.97 ± 0.09 |
| SAGKTVEIKVTLKITRYEKLPDGSVKKEVKTLTITVTMSEEELNKEEIKNALKELLEKLPPDVKKIEITSAG [r5_849_TrROS_Hall] | 2.8 ± 0.17 | 4.63 ± 0.083 | 4.34 ± 0.22 |
| SAGGSAKITIHMAPDGMFQIEIKTGGKERTYHVDMPLEQIKDELEDEGLEIKDIEITPFPPDPEDFSAGGSA [r15_576_TrROS] | -1.13 ± 0.93 | -0.146 ± 0.095 | -0.409 ± 0.16 |
| SAGSRVLTLVFEIPGRPEVVENLPEDVVLPDGARLYRDGERLLLVVEREVPSLPVLDADGRPVGPELLSAGG [r19_148_TrMRF] | 0.4 ± 0.027 | 1.11 ± 0.056 | 0.85 ± 0.039 |
| SAGGSAMSLEELKGHLVRLTLPDGRVVVAPVKEMDEEAPVLVIEFGGKPILIPKDAPVKLEVLPPGSAGGSA [r15_355_TrMRF] | 0.962 ± 0.039 | 0.581 ± 0.052 | 0.759 ± 0.062 |
| SAGGSAPPIEIEIDKWERDPENGYVYATVKIKLPGKKIEIPIWMDDPPGQAENQVKMLAENIARQLSAGGSA [r15_979_TrROS] | 0.807 ± 0.082 | 1.39 ± 0.11 | 1.11 ± 0.13 |
| SAGGSAGGSAGMTPVEITDPNSDKTYTYDPEKKTLTKYYPGEGKTETFPLTSEEEAKKLLSAGGSAGGSAGG [r11_936_JUSTAS] | -0.536 ± 0.13 | 0.396 ± 0.069 | 0.127 ± 0.08 |
| KIKIEPGETVRIKVKVKLPDGEEKEIEIELSLEELEKKLGRPLTPEEILNLIKEEAEKKGFEVEEVEIEKES [r1_338_TrROS_Hall] | 0.391 ± 0.12 | 1.38 ± 0.12 | 0.961 ± 0.36 |
| SAGGSAGGSVLVIDSPEQIKKAIKEFKDNGAKSIHIRGPGRYWVIQIDPKEPKVKVERVPLGQSAGGSAGGS [r12_368_TrROS] | 0.639 ± 0.096 | 0.674 ± 0.17 | 0.643 ± 0.16 |
| SAGGSAGGSMYRVRIKVRNRETGEWLEIELEVPEGVTEEELKAALRELFPDAEIVDIEIEKLPSAGGSAGGS [r12_738_TrROS_Hall] | 3.68 ± 0.14 | 4.34 ± 0.11 | 4.12 ± 0.2 |
